# Assay results reported in US20250282868A1 (ITEOS BELGIUM, published 2025).
# T1: human TREM2 (human, UniProt Q9NZC2 19-230)
# T1 sequence: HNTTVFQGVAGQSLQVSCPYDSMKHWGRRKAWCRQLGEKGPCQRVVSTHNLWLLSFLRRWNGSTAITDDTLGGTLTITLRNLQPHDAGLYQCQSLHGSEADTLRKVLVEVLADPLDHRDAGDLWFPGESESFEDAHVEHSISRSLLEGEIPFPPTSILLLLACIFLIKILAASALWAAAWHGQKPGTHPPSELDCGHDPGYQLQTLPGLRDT
# T2: mouse TREM2 (mouse, UniProt Q99NH8 19-227)
# T2 construct: whole, on cells
# T2 sequence (looked up): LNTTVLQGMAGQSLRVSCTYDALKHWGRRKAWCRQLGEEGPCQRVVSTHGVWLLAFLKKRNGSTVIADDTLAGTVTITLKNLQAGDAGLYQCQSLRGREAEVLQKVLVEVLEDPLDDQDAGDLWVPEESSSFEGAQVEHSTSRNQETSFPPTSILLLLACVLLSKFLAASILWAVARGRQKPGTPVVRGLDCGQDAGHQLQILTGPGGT
# T3: cynomolgus TREM2 (cynomolgus, UniProt A0A2K5UY34 49-260)
# T3 construct: also called cynoTREM2; cTREM2
# T3 sequence: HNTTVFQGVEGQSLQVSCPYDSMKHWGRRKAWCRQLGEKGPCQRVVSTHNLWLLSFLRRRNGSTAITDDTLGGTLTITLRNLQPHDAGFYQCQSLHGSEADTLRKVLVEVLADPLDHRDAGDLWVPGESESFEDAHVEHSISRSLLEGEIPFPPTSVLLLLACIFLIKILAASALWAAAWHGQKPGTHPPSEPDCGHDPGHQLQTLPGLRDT
# Tests used:
# human TREM2 [1] = target: T1, human TREM2; test: cell-based or functional assay
# mouse TREM2 [2] = target: T2, mouse TREM2; test: MFI on CT26 cells over-expressing mouse TREM2 and DAP12 vs CT26 empty vector
# Method: (§1) Cross-reactivity to mouse TREM2 was assessed using CT26 cells over-expressing mouse TREM2 and DAP12 (Table 23). Eight anti-TREM2 antibodies and both benchmark antibodies were considered cross-reactive to mouse TREM2 (MFI higher than isotype control and fold change of CT26-TREM2 over the CT26 Empty Vector higher than 5). The remaining anti-TREM2 antibodies were considered as being low to not cross-reactive (fold change less than 5). EOS006171 was not tested due to clear non-cross-reactivity preliminary data by octet (data not shown).
# human TREM2 [3] = target: T1, human TREM2; test: cell-based or functional assay; remark: listed apart in the source
# human TREM2 [4] = target: T1, human TREM2; test: flow cytometry, THP-1 WT vs THP-1 TREM2 KO cells, 10 ug/ml
# Method: (§2) In order to test specificity of selected antibodies to TREM2, binding was tested by flow cytometry on THP-1 TREM2 KO (clone, produced using CRISPR technology in house) and on THP-1 WT. Cells were incubated with selected anti-TREM2 antibodies (final concentration of 10 μg/ml) for 30 min at 4° C. After washing, bound antibodies were detected with a secondary anti-human IgG Fc PE-labelled for 30 min at 4° C. Fluorescence intensity was measured by flow cytometry.
# mouse TREM2 [5] = target: T2, mouse TREM2; test: MFI on CT26 cells over-expressing mouse TREM2 and DAP12
# Method: as §1
# cynomolgus TREM2 [6] = target: T3, cynomolgus TREM2; test: MFI on CHO cells over-expressing cynoTREM2-DAP12
# Method: (§3) Cross-reactivity of anti-TREM2 antibodies to cynomolgus TREM2 (cynoTREM2) was assessed using CHO over-expressing cynoTREM2-DAP12 (Table 22). Benchmark antibodies, AB52 and PN-37012, were examined for comparison.
# mouse TREM2 [7] = target: T2, mouse TREM2; test: MFI on CT26 cells over-expressing mouse TREM2 and DAP12; column 'Considered cross-reactive'
# Method: as §1
# cynomolgus TREM2 [8] = target: T3, cynomolgus TREM2; test: MFI on CHO cells over-expressing cynoTREM2-DAP12 vs CHO empty vector
# Method: as §3
# human TREM2 [9] = target: T1, human TREM2; test: flow cytometry, M2a-like macrophages, dose-response
# Method: (§4) M2a-like macrophages were produced in vitro from monocytes of healthy donors. Briefly, after PBMCs isolation from peripheral blood using Lymphoprep™ gradient, CD14+ cells were purified and seeded in presence of MCSF 50 ng/ml for 6 days. Macrophages were then cultured with IL-13 and IL-4 at a concentration of 20 ng/ml for two additional days and then used for a cell-based binding assay.
# (§5) M2a-like macrophages were incubated with anti-TREM2 antibodies (dose-response curve with 11 concentrations from 10 μg/ml to 0.0001 μg/ml) for 30 min at 4° C. After washing, bound antibodies were detected with a secondary anti-human IgG Fc PE-labelled for 30 min at 4° C. Fluorescence intensity was measured by flow cytometry. Equilibrium dissociation constant (kD) was then calculated for each antibody using median MFI normalized over isotype control.
# human TREM2 [10] = target: T1, human TREM2; test: flow cytometry, THP-1 WT cells, 10 ug/ml
# Method: as §2
# human TREM2 [11] = target: T1, human TREM2; test: flow cytometry, M2a-like macrophages
# Method: as §4, §5
# human TREM2 [12] = target: T1, human TREM2; test: flow cytometry, competition with LDL-Alexafluor-488 on CHO cells overexpressing human TREM2/DAP12
# Method: (§6) Exemplary anti-TREM2 antibodies were tested in order to characterize their ability to enter in competition with TREM2 ligand, LDL, on CHO overexpressing human TREM2/DAP12. Antibodies (dose response curves from 66.65 nM to 0.07 nM) were incubated for 30 min with cells in a soluble fashion, followed by an incubation with LDL coupled with Alexafluor-488 (at 1 μg/mL final) for 30 min. Finally, after 2 washes, cells were acquired on flow cytometer. The median MFI of Alexafluor-488 was used to plot the graphs. Benchmark antibody MOR044746 was used as positive control.
# human TREM2 [13] = target: T1, human TREM2; test: flow cytometry, competition with LDL-Alexafluor-488 on CHO cells overexpressing human TREM2/DAP12; only 1 value generated
# Method: as §6
binder,measurement,setting,value
"EOS006167 (antibody, V domains shown) VH: not shown VL: EIVLTQSPGTLSLSPGERATLSCRASQSVSSSYLAWYQQKPGQAPRLLIYGASSRATGIPDRFSGSGSGTDFTLTISRLEPEDFAVYYCQQYDDVPYTFGGGTKVEIK",Fold over isotype control at 66 nM,human TREM2 [1],1.57 fold
same,pSYK/TotSYK EC50 (nM),human TREM2 [1],49.9 nM
same,MFI Fold change (CT26-TREM2 over CT26-EV),mouse TREM2 [2],4.7 fold
same,Stabilization ratio (Mean of 2 replicates),human TREM2 [3],0.82 ratio
same,MFI Fold change (THP-1 WT over THP-1 TREM2 KO),human TREM2 [4],2.2 fold
same,Binding to CT26-TREM2 MFI,mouse TREM2 [5],2060 MFI
same,Binding to CHO-cTREM2 MFI,cynomolgus TREM2 [6],7220 MFI
same,binding result,mouse TREM2 [7],no binding (tested: fold change less than 5)
same,MFI Fold change (CHO-cTREM2 over CHO-EV),cynomolgus TREM2 [8],128 fold
same,Kd,human TREM2 [9],10.2 nM
same,Fold over isotype control THP1 WT,human TREM2 [10],2.1 fold
same,Fold over isotype,human TREM2 [11],1.6 fold
"EOS006168 (antibody, V domains shown) VH: not shown VL: EIVLTQSPGTLSLSPGERATLSCRASQSVSSSFLAWYQQKPGQAPRLLIYGASSRATGIPDRFSGSGSGTDFTLTISRLEPEDFAVYYCQQYYSPPITFGGGTKVEIK",Fold over isotype control at 66 nM,human TREM2 [1],1.99 fold
same,pSYK/TotSYK EC50 (nM),human TREM2 [1],96 nM
same,MFI Fold change (CT26-TREM2 over CT26-EV),mouse TREM2 [2],1.6 fold
same,Stabilization ratio (Mean of 2 replicates),human TREM2 [3],0.8 ratio
same,MFI Fold change (THP-1 WT over THP-1 TREM2 KO),human TREM2 [4],2.3 fold
same,Binding to CT26-TREM2 MFI,mouse TREM2 [5],655 MFI
same,Binding to CHO-cTREM2 MFI,cynomolgus TREM2 [6],194 MFI
same,binding result,mouse TREM2 [7],no binding (tested: fold change less than 5)
same,MFI Fold change (CHO-cTREM2 over CHO-EV),cynomolgus TREM2 [8],3.3 fold
same,Kd,human TREM2 [9],2.99 nM
same,Fold over isotype control THP1 WT,human TREM2 [10],3 fold
same,Fold over isotype,human TREM2 [11],1.9 fold
"EOS006165 (antibody, V domains shown) VH: QVQLVQSGAEVKKPGSSVKVSCKASGGTFSSYAISWVRQAPGQGLEWMGGIIPISGTANYAQKFQGRVTITADESTSTAYMELSSLRSEDTAVYYCARTQEYTAFDIWGQGTMVTVSS VL: EIVLTQSPATLSLSPGERATLSCRASQSVSSYLAWFQQKPGQAPRLLIYDASNRATGIPARFSGSGSGTDFTLTISSLEPEDFAVYYCQQDYHWPITFGGGTKVEIK",Fold over isotype control at 66 nM,human TREM2 [1],1.03 fold
same,MFI Fold change (CT26-TREM2 over CT26-EV),mouse TREM2 [2],2.3 fold
same,Stabilization ratio (Mean of 2 replicates),human TREM2 [3],0.54 ratio
same,MFI Fold change (THP-1 WT over THP-1 TREM2 KO),human TREM2 [4],2.5 fold
same,Binding to CT26-TREM2 MFI,mouse TREM2 [5],649 MFI
same,Binding to CHO-cTREM2 MFI,cynomolgus TREM2 [6],8500 MFI
same,binding result,mouse TREM2 [7],no binding (tested: fold change less than 5)
same,MFI Fold change (CHO-cTREM2 over CHO-EV),cynomolgus TREM2 [8],189 fold
same,Kd,human TREM2 [9],0.41 nM
same,IC50,human TREM2 [12],5.29 nM
same,Fold over isotype control THP1 WT,human TREM2 [10],1.7 fold
same,Fold over isotype,human TREM2 [11],2.2 fold
"EOS006172 (antibody, V domains shown) VH: QVQLVQSGAEVKKPGSSVKVSCKASGGTFSSYAISWVRQAPGQGLEWMGGIIPISGTANYAQKFQGRVTITADESTSTAYMELSSLRSEDTAVYYCARTQEYTLFDIWGQGTMVTVSS VL: EIVLTQSPATLSLSPGERATLSCRASQSVSSYLAWFQQKPGQAPRLLIYDASNRATGIPARFSGSGSGTDFTLTISSLEPEDFAVYYCQQDFHWPITFGGGTKVEIK",Fold over isotype control at 66 nM,human TREM2 [1],0.59 fold
same,MFI Fold change (CT26-TREM2 over CT26-EV),mouse TREM2 [2],4.9 fold
same,Stabilization ratio (Mean of 2 replicates),human TREM2 [3],0.46 ratio
same,MFI Fold change (THP-1 WT over THP-1 TREM2 KO),human TREM2 [4],8.9 fold
same,Binding to CT26-TREM2 MFI,mouse TREM2 [5],1660 MFI
same,Binding to CHO-cTREM2 MFI,cynomolgus TREM2 [6],17200 MFI
same,binding result,mouse TREM2 [7],no binding (tested: fold change less than 5)
same,MFI Fold change (CHO-cTREM2 over CHO-EV),cynomolgus TREM2 [8],418 fold
same,Kd,human TREM2 [9],0.09 nM
same,IC50,human TREM2 [12],0.115 nM
same,Fold over isotype control THP1 WT,human TREM2 [10],8.7 fold
same,Fold over isotype,human TREM2 [11],9.8 fold
"EOS006162 (antibody, V domains shown) VH: QVQLVQSGAEVKKPGSSVKVSCKASGGTFSSYAISWVRQAPGQGLEWMGGIIPISGTANYAQKFQGRVTITADESTSTAYMELSSLRSEDTAVYYCARTQEYTLFDSWGQGTMVTVSS VL: EIVLTQSPATLSLSPGERATLSCRASQSVSSYLAWFQQKPGQAPRLLIYDASNRATGIPARFSGSGSGTDFTLTISSLEPEDFAVYYCQQDYHWPITFGGGTKVEIK",Fold over isotype control at 66 nM,human TREM2 [1],0.785 fold
same,MFI Fold change (CT26-TREM2 over CT26-EV),mouse TREM2 [2],6.4 fold
same,Stabilization ratio (Mean of 2 replicates),human TREM2 [3],0.4 ratio
same,MFI Fold change (THP-1 WT over THP-1 TREM2 KO),human TREM2 [4],11 fold
same,Binding to CT26-TREM2 MFI,mouse TREM2 [5],2000 MFI
same,Binding to CHO-cTREM2 MFI,cynomolgus TREM2 [6],17100 MFI
same,binding result,mouse TREM2 [7],no binding
same,MFI Fold change (CHO-cTREM2 over CHO-EV),cynomolgus TREM2 [8],393 fold
same,Kd,human TREM2 [9],0.13 nM
same,IC50,human TREM2 [12],0.116 nM
same,Fold over isotype control THP1 WT,human TREM2 [10],9.9 fold
same,Fold over isotype,human TREM2 [11],10.8 fold
"EOS004283 (antibody, human IgG1, kappa, V domains shown) VH: QVQLVQSGAEVKKPGSSVKVSCKASGGTFAQYAISWVRQAPGQGLEWMGVIIPDSGTANYAQKFQGRVTITADESTSTAYMELSSLRSEDTAVYYCARTQENTIFDIWGQGTLVTVSS VL: EIVLTQSPATLSLSPGERATLSCRASQSVSSYLAWFQQKPGQAPRLLIYDASNRATGIPARFSGSGSGTDFTLTISSLEPEDFAVYYCQQDYEWPITFGGGTKVEIKR",Fold over isotype control at 66 nM,human TREM2 [1],0.267 fold
same,IC50,human TREM2 [13],0.138 nM
